Assay results as given in PMC6610696 (Structure (London, England : 1993), 2019).
Positions count from the first letter of the chain named. Names and notes keep the numbering of the source. Like-named read-outs stand apart in the source and are kept apart here. Square brackets hold non-standard residues; d marks the D form. Ends that are not written are not given here. pS = N[C@@H](COP(=O)(O)O)C(=O)O

B1: Nrd1 CID D70A mutant (domain or fragment, S. cerevisiae, UniProt P53617 6-151, looked up)
chain: DFQNFVATLESFKDLKSGISGSRIKKLTTYALDHIDIESKIISLIIDYSRLCPDSHKLGSLYIIASIGRAYLDETRSNSNSSSNKPGTCAHAINTLGEVIQELLSDAIAKSNQDHKEKIRMLLDIWDRSGLFQKSYLNAIRSKCFA
B2: Nrd1 CID D70N mutant (domain or fragment, S. cerevisiae, UniProt P53617 6-151, looked up)
chain: B1 chain with A65N
B3: Nrd1 CID Y67A mutant (domain or fragment, S. cerevisiae, UniProt P53617 6-151, looked up)
chain: B1 chain with Y62A, A65D
B4: ScSen1-NIM2-FAM peptide (peptide)
peptide: DDEDDYTPSISD
modifications: also: 5-FAM label: N-terminal per methods, C-terminal per resources table

Tests used:
Assay in all cases: fluorescence polarisation
ScSen1-NIM2-FAM peptide = molecular target: B4
[1] = molecular target: T1, S. cerevisiae Nrd1 CID (residues 6-151), N-terminal hexa-histidine tag (S. cerevisiae, UniProt P53617 6-151)
T1 sequence (looked up): B1 chain with A65D

[2] = molecular target: T1, S. cerevisiae Nrd1 CID (residues …); remark: listed apart in the source

B1 was tested, and the “fold increase in Kd for NIM2 against wild-type CID” value (shortened to “fold increase in Kd for NIM2”) (ScSen1-NIM2-FAM peptide) was 30 fold.

For B2, the “fold increase in Kd for NIM2” value (ScSen1-NIM2-FAM peptide) was 3 fold.

In the case of B3, the “fold increase in Kd for NIM2” value (ScSen1-NIM2-FAM peptide) is reported as 90 fold.

For B4, the Kd [1] was 0.56 µM.

DDEDDYTPSISD [ScSen1-NIM2 peptide]: binds [2].

In the case of DDENDYTPSISD [ScSen1-NIM2-D2056N peptide], the “fold increase in Kd against wild-type NIM2” value [2] is reported as 13 fold.

With DDEDDYTASISD [ScSen1-NIM2-P2060A peptide] the “fold increase in Kd against wild-type NIM2” value [2] was roughly 20 fold.

With DDEDDYTVSISD [ScSen1-NIM2-P2060V peptide] the “fold increase in Kd against wild-type NIM2” value [2] was roughly 20 fold.

In the case of EQEDDYKLPMEYIT [ScSen1-NIM1 peptide], the Kd [2] is reported as 7.6 µM.

With EAEDPYDLNPHPQ [ScSen1-NIM3 peptide] the Kd [2] was 38 µM.

For SPT[pS]PSYSPT[pS]PS [Pol II Ser5P CTD peptide], the Kd [2] was 216 µM.
